These results are taken from paper PMC6728052 (PLoS Computational Biology, 2019).

For test [1], the target named is human Vascular-Endothelial Growth Factor (VEGF) (Homo sapiens, UniProt P15692-4). The test can be described thus: SPR. (In SPR one partner is held on a chip, and binding of the other changes the refractive index at the surface.)
The target in a further test is hen egg-white lysozyme (Gallus gallus, UniProt P00698). Description: SPR.
hen egg-white lysozyme, sequence (P00698 19-147): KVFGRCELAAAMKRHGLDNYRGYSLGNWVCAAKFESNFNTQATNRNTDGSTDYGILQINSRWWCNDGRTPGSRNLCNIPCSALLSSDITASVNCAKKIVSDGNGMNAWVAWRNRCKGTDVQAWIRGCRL

B1: G6^des1, Fab (Fab, V domains shown)
VH: EVQLVESGGGLVQPGGSLRLSCAASGFTISDYWIHWVRQAPGKGLEWVAGITPAGGYTHYADSVKGRFTISADTSKNTAYLQMNSLRAEDTAVYFCARFVFFLPYAMDYWGQGTLVTVSS
VL: DIQMTQSPSSLSASVGDRVTITCRASQDVSTAVAWYQQKPGKPPKLLIFSASFLFSGVPSRFSGSGSGTDFTLTISSLQPEDFATYYCLQSYTVTPTFGPGTKVEIK
The term kon denotes the rate constant with which the complex forms. Read a high kon as faster complex formation. In test [1], B1 displayed a kon of 327000 M⁻¹ s⁻¹.

B2: G6^des13, Fab (Fab, V domains shown)
VH: EVQLVESGGGLVQPGGSLRLSCAASGFTISDYWIHWVRQAPGKGLEWVAGITPAGGYTHYADSVKGRFTISADTSKNTAYLQMNSLRAEDTAVYFCARFVFFLPYAMDYWGQGTLVTVSS
VL: DIQMTQSPSSLSASVGDRVTITCRASQDVSTAVAWYQQKPGKPPKLLIYSASFLYSGVPSRFSGSGSGTDFTLTISSLQPEDFATYYCLQSYTDTPTFGQGTKVEIK
The Kd is the concentration at which binding is half-saturated. A low value points to higher affinity. The koff is the first-order rate constant of dissociation. For B2, in test [1], binding was put at a Kd of 0.06 nM, the koff worked out at 3.2e-05 s⁻¹ and the kon came to 530000 M⁻¹ s⁻¹.

B3: D44.1^des, Fab (Fab, V domains shown)
VH: QVQLQESGAEVMKPGASVKISCKATGYTFSTYWIEWMKQRPGGGLEYIGEILPGSGSTYYNEKFKGKATFTADTSSNTAYMQLSSLTSEDSAVYYCARGDGYYKYWGQGTTLTVSS
VL: DIELTQSPATLSVTPGDSVSLSCRASQSISNNLHWYQQKSHEPPRLLIKYVSQSVSGIPSRFSGSGSGTDFTLSINSVETEDFGMYFCGQSNSWPRTFGGGTKLEIK
As to B3, in the test with hen egg-white lysozyme, the affinity, expressed as Kd, was 15 nM; the koff came out at 0.00079 s⁻¹; the kon amounted to 53000 M⁻¹ s⁻¹.
